According to US20210115133A1 (NGM BIOPHARMACEUTICALS, published 2021):

Assays:
[1] = molecular target: T1, human beta klotho expressed on cells (human, UniProt Q86Z14 1-1044); experiment: FACS competition on HuKLB overexpressing cells; cells pre-incubated with the row's antibody, competitor: labelled 9E19-Alexa647
T1 construct: in the reporter assays HEK293 cells were transfected with a GeneCopoeia human beta klotho plasmid together with human FGFR1c; in the adipocyte assay the beta klotho/FGFR1c is endogenous; also called HuKLB overexpressing cells; huKLB/R1c
T1 sequence: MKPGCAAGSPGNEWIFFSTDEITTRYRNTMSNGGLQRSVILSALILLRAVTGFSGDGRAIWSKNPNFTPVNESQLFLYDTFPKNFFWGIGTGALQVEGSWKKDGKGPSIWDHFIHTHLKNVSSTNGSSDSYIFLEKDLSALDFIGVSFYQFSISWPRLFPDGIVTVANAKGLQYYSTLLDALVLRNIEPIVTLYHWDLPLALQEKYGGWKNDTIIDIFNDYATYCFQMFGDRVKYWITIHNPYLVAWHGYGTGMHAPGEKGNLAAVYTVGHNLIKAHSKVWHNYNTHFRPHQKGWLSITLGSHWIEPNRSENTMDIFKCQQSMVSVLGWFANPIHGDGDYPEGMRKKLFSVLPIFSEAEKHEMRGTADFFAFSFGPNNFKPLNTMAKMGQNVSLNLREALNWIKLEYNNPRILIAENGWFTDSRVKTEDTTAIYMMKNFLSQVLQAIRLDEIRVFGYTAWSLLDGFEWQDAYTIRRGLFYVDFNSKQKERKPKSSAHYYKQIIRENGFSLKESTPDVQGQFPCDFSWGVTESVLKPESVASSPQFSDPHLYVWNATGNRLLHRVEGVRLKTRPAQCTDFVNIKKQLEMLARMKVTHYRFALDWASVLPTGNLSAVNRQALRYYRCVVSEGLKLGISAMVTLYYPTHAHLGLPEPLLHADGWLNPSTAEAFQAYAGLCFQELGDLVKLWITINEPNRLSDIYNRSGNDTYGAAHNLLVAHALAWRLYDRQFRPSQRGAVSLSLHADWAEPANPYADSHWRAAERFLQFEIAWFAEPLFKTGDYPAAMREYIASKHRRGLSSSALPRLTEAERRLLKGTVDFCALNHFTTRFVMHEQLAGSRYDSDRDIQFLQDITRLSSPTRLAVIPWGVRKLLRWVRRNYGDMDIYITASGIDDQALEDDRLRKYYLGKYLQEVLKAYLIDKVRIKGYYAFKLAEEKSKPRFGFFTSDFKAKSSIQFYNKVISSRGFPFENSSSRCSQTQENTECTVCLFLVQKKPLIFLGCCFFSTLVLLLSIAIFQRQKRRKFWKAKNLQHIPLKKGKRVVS
Protocol: (§1) For example, for competition binding assays by FACS analysis, antibody standards were prepared that were conjugated to a fluorochrome using either A488 or A647 antibody labeling kit (Invitrogen) following manufacturer's instructions. A dose titration of the conjugated antibody standard was evaluated using HuKLB overexpressing cells. The plateau of the maximal signal of antibody binding is EC=100 and the background signal is EC=0. Competition by FACS against the fluorochrome labeled antibody was performed by pre-incubating HuKLB overexpressing cells with hybridoma supernatants for 15 minutes at room temperature. Without washing, an EC=10 concentration of A488 or A647 labelled antibody standard was added. EC=10 for an individual antibody was determined by 10% of signal using the maximum signal as (100%) and background signal as (0%). After 30 minutes at 4° C., cells are washed and analyzed by FACS. […] A partial competing antibody is one sample that show signal between labelled antibody alone and background. Antibodies that show complete competition against the same standard antibody are considered to be in the same bin.
(§2) In exemplary competition binding experiments by FACS, antibody 3I13 or 9E19 was used as an antibody standard fora positive control (competing antibody) or a negative control (labeled antibody alone), respectively. Representative results are shown in Table 5 below reported as mean fluorescence intensity (MFI).

[2] = molecular target: T1, human beta klotho expressed on cells; experiment: FACS competition on HuKLB overexpressing cells; cells pre-incubated with the row's antibody, competitor: labelled 3I13-Alexa488
Protocol: as §1, §2

[3] = molecular target: T2, human beta klotho protein (human, UniProt Q86Z14 53-997, limits assumed); experiment: Biacore SPR; antibody captured on anti-mouse Fc CM5 chip, beta klotho 1.56-25 nM injected, 25 C
T2 construct: also called HuKLB; human beta klotho (R&D Systems)
T2 sequence: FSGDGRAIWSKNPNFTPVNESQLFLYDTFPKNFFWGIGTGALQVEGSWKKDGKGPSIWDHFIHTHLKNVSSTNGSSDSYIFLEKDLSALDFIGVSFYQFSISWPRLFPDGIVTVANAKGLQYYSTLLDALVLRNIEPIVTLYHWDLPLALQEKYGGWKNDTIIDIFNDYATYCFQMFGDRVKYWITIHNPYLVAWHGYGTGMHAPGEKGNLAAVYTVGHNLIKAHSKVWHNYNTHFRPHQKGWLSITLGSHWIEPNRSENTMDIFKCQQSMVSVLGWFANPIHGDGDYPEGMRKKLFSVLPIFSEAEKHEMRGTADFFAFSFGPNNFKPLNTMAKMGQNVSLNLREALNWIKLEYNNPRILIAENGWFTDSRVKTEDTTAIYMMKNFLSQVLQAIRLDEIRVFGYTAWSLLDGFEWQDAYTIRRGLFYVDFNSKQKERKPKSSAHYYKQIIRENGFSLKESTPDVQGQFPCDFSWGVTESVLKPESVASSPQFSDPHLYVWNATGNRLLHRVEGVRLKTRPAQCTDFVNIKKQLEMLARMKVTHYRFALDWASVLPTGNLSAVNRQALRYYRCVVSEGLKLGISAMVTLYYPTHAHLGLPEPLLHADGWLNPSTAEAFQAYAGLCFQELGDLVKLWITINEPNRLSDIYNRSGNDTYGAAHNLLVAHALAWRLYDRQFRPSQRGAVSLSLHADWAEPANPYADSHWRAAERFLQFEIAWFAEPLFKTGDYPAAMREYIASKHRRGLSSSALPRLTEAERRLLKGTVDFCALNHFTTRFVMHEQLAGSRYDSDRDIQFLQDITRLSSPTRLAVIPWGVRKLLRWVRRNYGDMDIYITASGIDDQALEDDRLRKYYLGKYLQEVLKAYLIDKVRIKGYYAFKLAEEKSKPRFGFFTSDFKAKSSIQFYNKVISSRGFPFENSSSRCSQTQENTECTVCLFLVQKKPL
Protocol: (§3) Binding affinity measurements were also made in additional Biacore based assays. For example, equilibrium dissociation constant (KD) measurements were carried out with purified antibodies to evaluate their binding to human beta klotho and cyno beta klotho. As mentioned above, anti-mouse Fc antibody (Sigma-Aldrich, St. Louis, Mo.) was immobilized on all four flow cells of a CM5 chip using amine coupling reagents (GE Healthcare LifeSciences, Piscataway, N.J.). Purified antibodies were captured (˜100 RUs) on flow cells 2, 3 and 4 using flow cell 1 as a reference. This was followed by injection of different concentrations of human or cyno beta klotho (1.56 nM to 25 nM, two-fold dilutions in PBS-P buffer) at a flow rate of 70 μL/min and the binding kinetics were evaluated at 25° C.

[4] = molecular target: T3, cynomolgus monkey beta klotho protein (cynomolgus monkey (Macaca fascicularis), UniProt Q86Z14 53-996 (human entry), limits assumed); experiment: as above
T3 construct: Soluble protein injected in Biacore assays; also called Cyno KLB; cyno beta klotho
T3 chain: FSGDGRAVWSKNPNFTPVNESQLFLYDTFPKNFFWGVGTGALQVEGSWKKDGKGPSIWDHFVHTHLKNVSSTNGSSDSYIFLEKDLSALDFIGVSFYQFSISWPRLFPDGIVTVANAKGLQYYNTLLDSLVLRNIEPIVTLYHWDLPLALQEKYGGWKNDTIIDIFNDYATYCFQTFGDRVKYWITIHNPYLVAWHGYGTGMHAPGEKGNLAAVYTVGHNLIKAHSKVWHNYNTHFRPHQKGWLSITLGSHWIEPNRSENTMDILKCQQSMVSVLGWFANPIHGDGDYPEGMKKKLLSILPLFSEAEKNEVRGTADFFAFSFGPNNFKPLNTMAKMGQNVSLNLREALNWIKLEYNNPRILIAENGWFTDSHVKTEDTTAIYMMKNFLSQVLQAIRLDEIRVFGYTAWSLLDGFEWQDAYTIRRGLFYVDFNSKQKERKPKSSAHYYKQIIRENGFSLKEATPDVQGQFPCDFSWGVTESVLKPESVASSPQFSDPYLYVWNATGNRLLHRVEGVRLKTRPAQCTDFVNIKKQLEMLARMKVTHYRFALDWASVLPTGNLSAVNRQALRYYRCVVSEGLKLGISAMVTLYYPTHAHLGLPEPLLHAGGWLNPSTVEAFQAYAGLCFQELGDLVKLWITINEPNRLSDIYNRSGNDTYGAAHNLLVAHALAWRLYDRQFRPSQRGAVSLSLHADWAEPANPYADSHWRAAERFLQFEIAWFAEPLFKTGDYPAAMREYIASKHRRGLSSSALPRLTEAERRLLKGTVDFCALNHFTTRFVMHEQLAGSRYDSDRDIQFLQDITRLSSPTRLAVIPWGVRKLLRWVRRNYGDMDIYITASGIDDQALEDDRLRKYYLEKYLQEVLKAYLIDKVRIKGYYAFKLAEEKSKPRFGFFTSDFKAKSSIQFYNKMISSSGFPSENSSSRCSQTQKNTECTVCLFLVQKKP
Protocol: as §3

[5] = molecular target: T1, human beta klotho expressed on cells; experiment: cell-based or functional assay
[6] = molecular target: T4, cynomolgus monkey beta klotho expressed on cells (cynomolgus monkey (Macaca fascicularis), UniProt Q86Z14 1-1044 (human entry)); experiment: cell-based or functional assay
T4 chain: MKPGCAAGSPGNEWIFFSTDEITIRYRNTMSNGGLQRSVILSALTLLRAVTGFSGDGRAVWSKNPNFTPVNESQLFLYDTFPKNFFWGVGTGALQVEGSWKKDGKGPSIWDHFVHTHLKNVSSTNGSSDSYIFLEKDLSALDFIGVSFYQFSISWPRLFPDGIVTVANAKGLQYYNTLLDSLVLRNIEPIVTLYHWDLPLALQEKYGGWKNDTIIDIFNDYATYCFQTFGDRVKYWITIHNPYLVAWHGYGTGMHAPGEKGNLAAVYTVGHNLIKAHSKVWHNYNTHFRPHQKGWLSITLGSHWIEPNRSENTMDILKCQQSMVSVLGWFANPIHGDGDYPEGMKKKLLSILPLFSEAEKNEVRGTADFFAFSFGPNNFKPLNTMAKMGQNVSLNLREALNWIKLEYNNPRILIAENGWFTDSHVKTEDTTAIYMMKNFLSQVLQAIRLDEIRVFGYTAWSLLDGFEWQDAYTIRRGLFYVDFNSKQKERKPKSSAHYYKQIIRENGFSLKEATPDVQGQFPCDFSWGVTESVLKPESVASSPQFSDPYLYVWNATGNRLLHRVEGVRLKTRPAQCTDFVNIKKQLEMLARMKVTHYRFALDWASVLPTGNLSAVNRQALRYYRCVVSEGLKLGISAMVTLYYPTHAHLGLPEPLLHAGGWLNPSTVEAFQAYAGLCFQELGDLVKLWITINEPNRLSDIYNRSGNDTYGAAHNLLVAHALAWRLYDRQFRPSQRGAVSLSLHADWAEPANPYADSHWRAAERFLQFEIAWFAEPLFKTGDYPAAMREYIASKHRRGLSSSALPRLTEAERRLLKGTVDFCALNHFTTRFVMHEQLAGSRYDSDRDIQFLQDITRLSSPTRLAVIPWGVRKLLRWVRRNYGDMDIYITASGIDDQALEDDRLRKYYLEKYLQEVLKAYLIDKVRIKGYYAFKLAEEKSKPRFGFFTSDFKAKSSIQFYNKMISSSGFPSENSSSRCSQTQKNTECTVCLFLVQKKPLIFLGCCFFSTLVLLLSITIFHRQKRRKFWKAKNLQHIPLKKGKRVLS

Row | Binder | Mean Florescence Intensity (MFI) [1] | Mean Florescence Intensity (MFI) [2] | Kd [3] | Kd [4] | HEK293 huKLB/R1c reporter assay EC50 (Experiment - A) [5] | HEK293 huKLB/R1c reporter assay EC50 (Experiment - B) [5] | HEK293 cynoKLB/R1c reporter assay EC50 [6]
1 | anti-beta klotho monoclonal antibody 3I13 (antibody, V domains shown, Murine monoclonal antibody from a hybridoma (captured by anti-mouse Fc); also called 3I13 - Alexa488) VH: QVQLQQSGPELVKPGASVKISCKTSGYTFTEYTMHWVKQSHGKSLEWIGSFNPDSGGTSYNQKFKGKATLTVDKSSSTAYMELRSLTSEDSAVYYCARDDGYSTRYWYFDVWGAGTTVTVSS VL: DIQMTQSPASLSASVGETVTITCGASENIYGALNWFQRKQGKSPQLLIYGATILADGMSSRFSGSGSGRQYSLKISSLHPDDVATYYCQNVLSTPYTFGGGTKLEIK | 27.8 MFI | 8.1 MFI | 0.4 nM | 1.9 nM | 0.333 nM | 1.99 nM | 0.438 nM
2 | anti-beta klotho monoclonal antibody 4A2 (antibody, V domains shown, Murine monoclonal antibody from a hybridoma) VH: EVQLQQSGPELVKPGTSVKISCKTSGYTFTEYTMYWVKQSHGKSLEWIGGFNPNYGGASYNQKFKDKATLTVDKSSSTAYMELRSLTSEDSAVYYCARDDGYSTRYWYFDVWGAGTTVTVSS VL: DIQMTQSPASLSASVGETVTITCGASENIYGALNWYQRKQGKSPQLLIYGATNLADGMSSRFSGSGSGRQYSLKISSLHPDDVATYYCQNVLSTPYTFGGGTKLEIK | 28.5 MFI | 9.1 MFI | 0.92 nM | 3.2 nM |  |  | 
3 | anti-beta klotho monoclonal antibody 2J21 (antibody, V domains shown, Murine monoclonal antibody from a hybridoma) VH: EVQLQQSGPELVKPGASVKISCKTSGYTFTEYIMHWVKQSHGKSLEWIGNIDPNTGGTSYNQKFKGKATLTVDKSSITAFMELRSLTSEDSAVYYCARDDGYSTRYWYFDVWGAGTTVTVSS VL: DIQMTQSPPSLSASVGETVTITCGASENIYGALNWYQRKQGKSPQLLIYGATNLADGMSSRFSGSGSGRQYSLKISSLHPDDVATYYCQNVLSTPYTFGGGTKLEIK | 25.7 MFI | 10.2 MFI | 4.8 nM | 12.2 nM |  |  | 
